Measurements reported in article doi:10.1101/2020.05.07.057075 (bioRxiv, 2020).
Several values for one entry are separate records, joined by “and”; a condition that tells them apart may be missing. Equal values may be shown once. Values belong to the binder of their own block, whether it stands above or below them.

B1: NPM(225-294) construct, C-terminal globular domain (domain or fragment)
chain: QESFKKQEKTPKTPKGPSSVEDIKAKMQASIEKGGSLPKVEAKFINYVKNCFRMTDQEAIQDLWQWRKSL
B2: cytochrome c (Cc), recombinant, purified (natural protein)
chain: not shown
modifications: heme group
B3: NPM oligomerization domain NPM(1-130), His-tagged (domain or fragment)
chain: MEDSMDMDMSPLRPQNYLFGCELKADKDYHFKVDNDENEHQLSLRTVSLGAGAKDELHIVEAEAMNYEGSPIKVTLATLKMSVQPTVSLGGFEITPPVVLRLKCGSGPVHISGQHLVAVEEDAESEDEEE

What was measured:
[1] = biological target: B2; assay: ITC
[2] = biological target: T1, full-length nucleophosmin NPM(1-294), recombinant (UniProt P06748 1-294); assay: ITC
[3] = biological target: NPM oligomerization domain core NPM(9-122) (UniProt P06748 9-122); assay: ITC
[4] = biological target: NPM(123-294) construct without the oligomerization domain (UniProt P06748 123-294); assay: ITC
[5] = biological target: T1, full-length nucleophosmin NPM(1-294), …; assay: negative-stain electron microscopy with 3D reconstruction
SDS-PAGE = biological target: the molecule itself; assay: SDS-PAGE

T1 sequence (P06748 whole entry, the tested form may be a part): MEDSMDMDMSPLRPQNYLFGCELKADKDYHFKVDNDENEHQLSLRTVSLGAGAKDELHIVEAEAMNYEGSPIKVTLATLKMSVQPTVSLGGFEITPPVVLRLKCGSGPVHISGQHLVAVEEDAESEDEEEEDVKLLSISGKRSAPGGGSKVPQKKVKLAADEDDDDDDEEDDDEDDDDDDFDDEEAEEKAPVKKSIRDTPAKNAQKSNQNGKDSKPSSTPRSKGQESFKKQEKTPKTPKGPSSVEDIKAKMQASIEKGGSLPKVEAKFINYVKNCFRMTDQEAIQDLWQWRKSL

Binder: B1
Kd [1]: ~200 µM

Binder: B2
fold decrease of affinity (by KD) upon addition of 0.1 M KCl [2]: 12 fold | stoichiometry N [2]: 1 Cc:NPM and 2 Cc:NPM | fold decrease of affinity (by KD) upon addition of 0.1 M KCl [3]: 3 fold | stoichiometry N [3]: 2 Cc:NPM and 1 Cc:NPM | Kd [4]: 13 µM | stoichiometry N [5]: 1 Cc per NPM pentamer

Kd [2]: 0.28 µM | stoichiometry N [2]: 5.6
Binder: MGRRFLVTVRIQRAGRPLQERVFLVKFVRSRRPRTAS [p19ARF(1-37) domain]

Binder: B3
stoichiometry N (SDS-PAGE): 5
